Tests used:
[1] = target: CH848 10.17DT DS SOSIP trimer (HIV-1 (CH848 10.17) | HIV-1 (BG505)) (UniProt Q2N0S6); experiment: SEC
[2] = target: CH848 10.17DT SOSIPv4.1 trimer (HIV-1 (CH848 10.17) | HIV-1 (BG505)) (UniProt Q2N0S6); experiment: SEC

Substance: CH848 10.17DT DS SOSIP trimer (from UniProt Q2N0S6 509-661) (domain or fragment)
- percent of the total peak that is trimer [1]: 65%
- stoichiometry N [1]: 3

Substance: CH848 10.17DT SOSIPv4.1 trimer (from UniProt Q2N0S6 509-661) (domain or fragment)
- percent of the total peak that is trimer [2]: 62%

Reference: publication PMC8366792
